Data on 15 molecules can be found in patent US20240150440A1 (LUMEN BIOSCIENCE, published 2024).

Assay [1] has as its target T1, SARS-CoV-2 Alpha Variant RBD (SARS-CoV-2 Alpha variant).
T1 construct: domain: RBD; coated on ELISA plates
The assay can be described thus: ELISA, RBD coated.

Assay [2] has as its target T2, SARS-CoV-2 Beta Variant RBD (SARS-CoV-2 Beta variant).
T2 construct: domain: RBD; coated on ELISA plates
Put plainly: ELISA, RBD coated.

Assay [3] has as its target T3, SARS-CoV-2 Gamma Variant RBD (SARS-CoV-2 Gamma variant).
T3 construct: domain: RBD; coated on ELISA plates
Put plainly: ELISA, RBD coated. (In an ELISA, binding on a coated surface is turned into a signal by an enzyme label.)

In assay [4] the target is T4, SARS-CoV-2 Delta Variant RBD (SARS-CoV-2 Delta variant).
T4 construct: domain: RBD; coated on ELISA plates
Put plainly: ELISA, RBD coated.

For assay [5], the target named is T5, SARS-CoV-2 spike protein on pseudotyped lentivirus (Wuhan Reference Pseudovirus) (SARS-CoV-2, UniProt P0DTC2 14-1273). The assay can be described thus: cell-based or functional assay.
The target in assay [6] is T5, SARS-CoV-2 spike protein on pseudotyped …. Put plainly: cell-based or functional assay. The source holds these as a separate data set.

B1: PP1094 MBP-5HVZ-PAPA-RN-1-H6 (VHH)
VHH: QVQLVESGGGLVQPGGSLRLSCAASGYIFEGGPTAWFRQAPGKGREFVAAITTSGETSYAYSVKGRFTISRDNAKNTVYLQMNSLKPEDTAVYYCNATDRDETGYDYWGQGTQVTVSS
Turning to B1, the EC50 came to 0.00089 µM in assay [1], 0.315 µM in assay [2], 0.16 µM in assay [3] and 0.0499 µM in assay [4]. In addition, the “infectivity % under 10 ug/mL VHH treatment” value (“infectivity %” for short) in assay [5] was 83.4%.

B2: PP912 MBP-5HVZ-S2b-G8-H6 (VHH)
VHH: QVQLVESGGGLVQPGGSLRLSCAASGSIQSYEAMHWFRQAPGKAREWVAVITWGDSTQYGDSVKGRFTISRDNAKNTVYLQMNSLKPEDTAVYYCAADVRQGYSSWGQGTQVTVSS
notes: Form: Dimer
As to B2, the EC50 worked out at 0.00196 µM in assay [1], 0.365 µM in assay [2], 0.177 µM in assay [3] and 0.622 µM in assay [4]. Further, the “infectivity %” value in assay [5] was determined as 73.2%.

B3: PP933 MBP-5HVZ-R5e-C1-H6 (VHH)
VHH: QVQLVESGGGLVQPGGSLRLSCAASGSIPYVQAMSWFRQAPGKGREGVASIGWGGGTYYADSVKGRFTISRDNAKNTVYLQMNSLKPEDTAVYYCAAKFRENFSFYDYWGQGTQVTVSS
notes: Form: Dimer
With B3, the EC50 in assay [1] is 0.00974 µM; in assay [2], 0.0102 µM; in assay [3], 0.00973 µM; in assay [4] it was 0.00887 µM.

B4: PP906 MBP-5HVZ-S1b-E7-H6 (VHH)
VHH: QVQLVESGGGLVQPGGSLRLSCAASGGEFSDNGLHWFRQAPGKQREFVATASSDGSTQYRDSVKGRFTISRDNAKNTVYLQMNSLKPEDTAVYYCTALLMSSAGEYDVWGQGTQVTVSS
notes: Form: Dimer
Take B4: the EC50 in assay [1] was found to be 0.00197 µM; in assay [2] it was 0.988 µM; in assay [3], 0.378 µM; in assay [4] it was 0.205 µM. For the same molecule, the “infectivity %” value in assay [5] was determined as 69.6%.

B5: PP1112 MBP-5HVZ-PAPA-RN-28-H6 (VHH)
VHH: QVQLVESGGGLVQPGGSLRLSCAASGSQFSHNLMSWFRQAPGKQREFVAAITSFGSTGYADSVKGRFTISRDNAKNTVYLQMNSLKPEDTAVYYCAALSSEDTSHYPRNYWGQGTQVTVSS
notes: Form: Dimer
As for B5, the EC50 in assay [1] came to 0.00176 µM; in assay [2], 0.00477 µM; in assay [3], 0.00301 µM; in assay [4], 0.0151 µM. Moreover, the “infectivity %” value in assay [5] was 70.4%.

B6: PP931 MBP-5HVZ-R5a-F5-H6 (VHH)
VHH: QVQLVESGGGLVQPGGSLRLSCAASGYHASILAMHWVRQAPGKEREWVASMTWSDMTQYSDSVKGRFTISRDNAKNTVYLQMNSLKPEDTAVYYCAATYVTRDRPWTHWGQGTQVTVSS
notes: Form: Dimer
B6: the EC50 came out at 0.00207 µM in assay [1], 0.134 µM in assay [2], 0.11 µM in assay [3] and 0.127 µM in assay [4]. In assay [5], the “infectivity %” value is 57.5%.

B7: PP1095 MBP-5HVZ-PAPA-RN-2-H6 (VHH)
VHH: QVQLVESGGGLVQPGGSLRLSCAASGSYFSKNAVHWYRQAPGKGREWVAALTNSGSGNYKDSVKGRFTISRDNAKNTVYLQMNSLKPEDTAVYYCTANISESTGQGYDYWGQGTQVTVSS
For B7, the EC50 in assay [1] turned out to be 0.00118 µM; in assay [2], 0.193 µM; in assay [3] it was 0.0909 µM; in assay [4] it was 0.0169 µM. Further, the “infectivity %” value in assay [5] was determined as 76.8%.

B8: PP1101 MBP-5HVZ-PAPA-RN-16-H6 (VHH)
VHH: QVQLVESGGGLVQPGGSLRLSCAASGADFSSNAMHWFRQAPGKAREFVASIDSDKSGYYADSVKGRFTISRDNAKNTVYLQMNSLKPEDTAVYYCNAYSGTDNYGYDYWGQGTQVTVSS
notes: Form: Dimer
B8: the EC50 was determined as 0.00177 µM in assay [1], 0.115 µM in assay [2], 0.0515 µM in assay [3] and 0.0426 µM in assay [4]. Besides, the “infectivity %” value in assay [5] was 91.8%.

B9: PP1109 MBP-5HVZ-PAPA-RN-25-H6 (VHH)
VHH: QVQLVESGGGLVQPGGSLRLSCAASGEDYSYNAAHWFRQAPGKEREWVAAINSGGGTYYADSVKGRFTISRDNAKNTVYLQMNSLKPEDTAVYYCAYLGALDRDGYDAWGQGTQVTVSS
notes: Form: Dimer
Regarding B9, the EC50 in assay [1] is 0.00112 µM; in assay [2] it was 0.0171 µM; in assay [3] it was 0.011 µM; in assay [4], 0.115 µM. Further, the “infectivity %” value in assay [5] was determined as 88%.

B10: PP1111 MBP-5HVZ-PAPA-RN-27-H6 (VHH)
VHH: QVQLVESGGGLVQPGGSLRLSCAASGPQFSSNAVSWFRQAPGKEREWVAGITSGGSTDYADSVKGRFTISRDNAKNTVYLQMNSLKPEDTAVYYCTAPSVSDADRRTRDYWGQGTQVTVSS
notes: Form: Dimer
Consider B10, for which the EC50 in assay [1] stood at 0.00031 µM; in assay [2], 0.00157 µM; in assay [3] it was 0.0016 µM; in assay [4], 0.231 µM. The “infectivity %” value in assay [5] was 68.3%.

B11: PP930 MBP-5HVZ-R2b-D4-H6 (VHH)
VHH: QVQLVESGGGLVQPGGSLRLSCAASGSYASIASMHWFRQAPGKQREFVAGLTSGGSRIYGDSVKGRFTISRDNAKNTVYLQMNSLKPEDTAVYYCTALILHYAGMYDYWGQGTQVTVSS
notes: Form: Dimer
Consider B11, for which the EC50 came to 0.0039 µM in assay [1], 0.013 µM in assay [2], 0.0102 µM in assay [3] and 0.0211 µM in assay [4]. Besides, the “infectivity %” value in assay [5] is 35.6%.

B12: PP1104 MBP-5HVZ-PAPA-RN-19-H6 (VHH)
VHH: QVQLVESGGGLVQPGGSLRLSCAASGIDDSIGAMHWFRQAPGKGREFVAALSGTGTTSYADSVKGRFTISRDNAKNTVYLQMNSLKPEDTAVYYCAAAFPAGGDYWGQGTQVTVSS
notes: Form: Dimer
Take B12: the EC50 in assay [1] is 0.00109 µM; in assay [2] it was 0.0449 µM; in assay [3], 0.0295 µM; in assay [4], 0.295 µM. Further, the “infectivity %” value in assay [5] was found to be 73.8%.

B13: PP1105 MBP-5HVZ-PAPA-RN-20-H6 (VHH)
VHH: QVQLVESGGGLVQPGGSLRLSCAASGNYFEINKMHWFRQAPGKQREFVATIGSGGSTAYADSVKGRFTISRDNAKNTVYLQMNSLKPEDTAVYYCNALIYLADRRDGYYSYDYWGQGTQVTVSS
notes: Form: Dimer
As for B13, the EC50 was determined as 0.00141 µM in assay [1], 0.0266 µM in assay [2], 0.0154 µM in assay [3] and 0.0366 µM in assay [4]. The “infectivity %” value in assay [5] amounted to 79.8%.

B14: PP1145 MBP-5HVZ-PAPA-R2d-A6-H6 (VHH)
VHH: QVQLVESGGGLVQPGGSLRLSCAASGSGASIGAMHWFRQAPGKGREWVASITSAGNTYYGDSVKGRFTISRDNAKNTVYLQMNSLKPEDTAVYYCNALAGANYESQWEEYNYWGQGTQVTVSS
notes: Form: Dimer
For the molecule B14, the EC50 turned out to be 0.00194 µM in assay [1], 0.0309 µM in assay [2], 0.00549 µM in assay [3] and 0.089 µM in assay [4]. In assay [5], the “infectivity %” value was found to be 65.2%. In addition, in assay [6], the “Pseudovirus neutralization IC50” value was determined as 0.146 µM.

B15: PP1110 MBP-5HVZ-PAPA-RN-26-H6 (VHH)
VHH: QVQLVESGGGLVQPGGSLRLSCAASGSISSINSMHWYRQAPGKEREWVAAVSSYGSDYYADSVKGRFTISRDNAKNTVYLQMNSLKPEDTAVYYCAARTVTGFTYGDYWGQGTQVTVSS
notes: Form: Dimer
Regarding B15, the EC50 in assay [1] was 0.00498 µM; in assay [2] it was 0.017 µM; in assay [3] it was 0.00898 µM; in assay [4] it was 0.407 µM. In assay [5], the “infectivity %” value came out at 57.9%.

Usually EC50 stands for the concentration at which the effect is half-maximal. Read a high EC50 as weaker potency.
